These results are taken from publication PMC5910400, “Genetically engineered two-warhead evasins provide a method to achieve precision targeting of disease-relevant chemokine subsets” (Scientific Reports, 2018).

First the molecules themselves.
B1: CCL3L1 (ligand, human, UniProt P16619 24-93, looked up)
chain: APLAADTPTACCFSYTSRQIPQNFIADYFETSSQCSKPSVIFLTKRGRQVCADPSEEWVQKYVSDLELSA
notes: source: bought: Peprotech
B2: CCL5 (ligand, human, UniProt P13501 24-91, looked up)
chain: SPYSSDTTPCCFAYIARPLPRAHIKEYFYTSGKCSNPAVVFVTRKNRQVCANPEKKWVREYINSLEMS
notes: source: bought: Peprotech
B3: CCL1 (ligand, human, UniProt P22362 24-96, looked up)
chain: KSMQVPFSRCCFSFAEQEIPLRAILCYRNTSSICSNEGLIFKLKRGKEACALDTVGWVQRHRKMLRHCPSKRK
notes: source: bought: Peprotech
B4: CCL22 (ligand, human, UniProt O00626 25-93, looked up)
chain: GPYGANMEDSVCCRDYVRYRLPLRVVKHFYWTSDSCPRPGVVLLTFRDKEICADPRVPWVKMILNKLSQ
notes: source: bought: Peprotech
B5: P1243 (evasin from Amblyomma americanum), purified, C-terminal StrepII:8xHis tag (natural protein)
chain: ETGRNHTEDNSTEYYDYEEARCACPARHLNNTNGTVLKLLGCHYFCNGTLCTAPDGYPCYNLTAQQVRTLTTYPNTSCAVGVCMKGTCVKNGTMEQCFKTP
B6: CCL3 (ligand, human, UniProt P10147 24-92, looked up)
chain: SLAADTPTACCFSYTSRQIPQNFIADYFETSSQCSKPGVIFLTKRSRQVCADPSEEWVQKYVSDLELSA
notes: source: bought: Peprotech

The target in assay [1] is B5. Nature of the assay: BLI; titration; evasin immobilised on the sensor through the C-terminal His tag; chemokine 300 nM to 0.4 nM (CXCL2: 600 nM to 1.2 nM), at least five concentrations; non-interacting reference protein; one-site binding fit or steady state analysis. The conditions noted are these: both partners purified. (Biolayer interferometry detects binding as a change in optical thickness at a sensor tip.)

The assay “CCL3” concerns the target B6. Nature of the assay: cell-based or functional assay.
The assay “CCL5” concerns the target B2. Nature of the assay: cell-based or functional assay.
The assay “CCL3L1” concerns the target B1. As to the kind of experiment: cell-based or functional assay.

For the molecule B1, the binding result in assay [1] is recorded as “binds”.
The same measure, in the same setting: in the case of B2 it was “binds”; in that of B3, “binds”; in that of B4, “binds”.
Consider B5, for which the “mean IC50 (three biological replicates) of inhibition of THP-1 cell migration induced by the EC80 dose of CCL3” value with CCL3 is 6.5e-09 M. The “mean IC50 (three biological replicates) of inhibition of THP-1 cell migration induced by the EC80 dose of CCL5” value with CCL5 stood at 8.9e-09 M. Also, in the assay with CCL3L1, the “mean IC50 (three biological replicates) of inhibition of THP-1 cell migration induced by the EC80 dose of CCL3L1” value turned out to be 1e-09 M.
Regarding B6, the binding result in assay [1] is recorded as “binds”.
